Target: T1, anti-diuretic hormone (ADH, arginine-vasopressin) (UniProt P01185 20-28)
T1 chain: CYFQNCPRG
Assay: graphene FET (drain current); 10 ag/mL to 1 pg/mL ADH in PBS; ID 116.26 to 338.64 uA at VG 8 V; sensor LOD 3.55 ag/mL; PBS (or human serum), 10 min incubation per concentration, PBS washes; pH and temperature not stated

B1: ADH-specific aptamer (ssDNA)
DNA: TCACGTGCATGATAGACGGCGAAGCCGTCGAGTTGCTGTGTGCCGATGCACGTGA
modifications: 5'-amine
binding result: binds

Source: PMC7248865, “Ultrasensitive and Highly Selective Graphene-Based Field-Effect Transistor Biosensor for Anti-Diuretic Hormone Detection”
